Measured values taken from publication PMC8540780, “Biochemical and Molecular Characterization of the Rice Chalcone Isomerase Family” (Plants, 2021).

Legend:
[1] = substrate: O=C(/C=C/c1ccc(O)cc1)c1c(O)cc(O)cc1O; experiment: purified protein; format: biochemical, Oryza sativa; conditions: 50 mM Tris pH 7.5, 0.1 µg enzyme per mL, substrate 1–50 µM
[2] = substrate: O=C(/C=C/c1ccc(O)cc1)c1ccc(O)cc1O; experiment: purified protein; conditions: 50 mM Tris pH 7.5, 500 µg enzyme (b24 prints 440 µg/mL for the activity test), substrate 1–50 µM

B1: OsCHI3 (Oryza sativa Japonica Group) (protein)
chain: MAAVSEVEVDGVVFPPVARPPGSGHAHFLAGAGVRGVEIAGNFIKFTAIGVYLEEGAAVPALAKKWAGKSADELAADAAFFRDVVTGDFEKFTRVTMILPLTGEQYSDKVTENCVAAWKAAGVYTDAEGAAADKFKEAFKPHSFPPGASILFTHSPPGVLTVAFSKDSSVPEGAVAAAAIENRALCEAVLDSIIGEHGVSPAAKRSIAARVSQLLKAESTGDVAAAEPAPVSA
notes: 233 aa; 28 kDa on SDS-PAGE
Km [1]: 11.60 ± 0.78 µM
Vmax [1]: 160 µmol/min/mg
kcat [1]: 69.3 s⁻¹
kcat/Km [1]: 5.98e+06 M⁻¹ s⁻¹
Km [2]: 50.95 ± 4.83 µM
Vmax [2]: 0.000212 µmol/min/mg
kcat [2]: 9.21e-05 s⁻¹
kcat/Km [2]: 1.81 M⁻¹ s⁻¹
